Assay results taken from the nanobody polyreactivity screen of Harvey et al. (2022).

Assay: yeast display, Sf9 membrane polyspecificity reagent, FACS + sequencing; frameworks hold sequencing errors
Summary of the method: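 Nanobodies came from a synthetic yeast display library in Saccharomyces cerevisiae BJ5465, induced with galactose for 36–48 hours and stained for 1 hour at 4 °C with 10% biotinylated, detergent-solubilized Sf9 membrane reagent. Cells were enriched on streptavidin microbeads and then FACS-sorted, with low and high (top ~1%) gates set on anti-HA fluorescence for expression and streptavidin fluorescence for reagent binding. Each polyreactivity label reflects the gate a clone came from. Genes were amplified by colony PCR, sequenced by MiSeq 2 × 250 and filtered by CDR length.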

Sequence	polyreactivity (PSR sort gate)
QVQLVESGGRLVQAGGSLRLSCAASGSIFYYYAKGLYRKAPVTARELVAAISTRGGRTYYADSVKGRFTISRDNAKTTVYLQMNSLKPEDTAVYYCNVPYYLPSYLSGYDYWGQGTQVTVSS	low polyreactivity
QVQLVESGGGLVQAGGSLRLSCAASGRTLLPNALGWYRQAPGKERELVASIRDGGDTNYADSVKGRFTISRDNAKKTVYLQMNSLQPEDTGVYYCNADWWAYYSFGHEYWGLGTQVTVSS	low polyreactivity
QVQLVESGGGLVQAGGSLRLSCAASGGIFGSYAMGWYRQAPGKERELVAAITSGGRTTYADSVKGRFTISRDNAKNTVYLQMNSLKPEDTAVYYCNAGRVFGNYFFRVYYYWGQGTQVTVSS	high polyreactivity
QVQLVESGGGLVQAGGSLRLSCAASGRTFGTNAMGWYRQAPGKERELVAAISRRGGSTYYADSVKGRFTISRDNAKNTVYLQMNSLKPEDTAVYYCNVVTKFTGRGYDYWGQGTQVTVSS	high polyreactivity
QDQLVESGGGLVQAGGSLRLSCAASGRIFDTYAMGWYRQAPGKERELDAAITRRGGSTYYADSVKGRFTISRDIAKNTVYLQMNSLKPEDTAVYYCAKSLVNRHYDYWGQGTQVTVSS	low polyreactivity
QVQLVESGGGLVQAGGSLRLSCAASGFIFEGYAMGWYRQAPGKERELVAAISRGGGSTYYADSVKGRFTISRDNAKNTVYLQMNSLKPEDTAVYSCATGGYYHYTGVKMYYWGQGTQVTVSS	high polyreactivity
QVQLVESGGGLVQAGGSLRLSCAASGIIFVWYAMGWYRQAPGKERELVAAIRSGGITNYADSVKGRFTISRDNAKNTVYLQMNSLKPEDTAVYYCDAPYRTDTGDDYWGQGTQVTVSS	low polyreactivity
QVQLVESGGGLVQAGGSLRLSCAASGRIFVSNDMGWYRQAPGKERELVAAISWSDDSTHYADSVKGRFTISRDNAKNTVYLQMNSLKPEDTAVYYCNKQRYYSTWRYDYWGQGTQVTVSS	low polyreactivity
QVQLVESGGGLVQPGGSLRLSCAASGFIFSYYVMGWYRQAPGKERELVAAITTSGDSTYYADSVKGRFTISRDNAKNSVYLQMNSLKPEDTAVYYCNTVYRYRYYWGQGTHVTVSS	high polyreactivity
QVQLVESGGGLVQAGGSLRLSCAASGRIFTQNAMGWYRQAPGKERELVAAITSGGSTYYADSVKGRFTISRDNAKNTVYLQMNSLKPEDTAVYYCAAEYGTYFVRYYAGASYRYGYWGQGTQVTVSS	low polyreactivity
QVQLVESGGGLVQAGGSLRLSCPASASIFLSNMGWYRQAPGKERELVAAITIGGSTDYADSVKGRFTISRDNAKNTVYLQMNSLKPEDTAVYYCNADNPYSDGADSLGNYWGQGTQVTVSS	low polyreactivity
QVQLVESGGGLVQAGGSLRLSCAASGRTFRSYAMGWYRQAPGKERELVASITSSGRTNYADSVKGRFTISRDNAKNTVYLQMNSLKPEDTAVYYCAAVRYYDYLSSWRYDYWGQGTQVTVSS	low polyreactivity
QVQLVESGGRLVQAGGSLRLSCAASGLILLPNTMGWYRQAPGKESEMVAAISYSGGGTYYADSVKARFTISRDNAKNSVYLQMNSLKPEDTAVYYCAAYVKRESAPYGYWGQGTQVTVSS	low polyreactivity
QVQLVESGGGLVQAGGSLRLSCAASGRIFRHKTLGWYRQAPGKEREMVAGITASGGDTYYADSVKGRFTISRDNAKNTVYLQMNSLKPEDTAVYYCATSQYGYRSWPGLYYWGQGTQVTVSS	low polyreactivity
QVQLVESGGGLVQAGGSLRLSCAASGRIFYPYAMGWYRQAPGKERELVAAISRSGGSTYYADSVKGRFTISRDNAKNTVYLQMNSLKPEDTAVYYCAAEVVYFYSDAHIGYVDYEYWGQGTQVTVSS	low polyreactivity
QVQLVESGGGLVQAGGSLRLSCAASGFIFGRYAMGWYRQAPGKERELVAAITYSSGSTYYADSVKGRFTISRDNAKNTVYLQMNSLKPEDTAVYYCNAEFWYETLYEYDYWGQGTQVTVSS	high polyreactivity
QVQHVESGGGLVQAGGSLRLSCAASGFIFSKYAMGWYRPAPGKERELVAAITRSGGRTYYADSVKGRFTISRDNAKNTVYLQMNSLKPEDTAVYYCAASWLYFGRDYWGQGTQVTVSS	high polyreactivity
QVQLVESGGGLVQAGGSLRLSCSASGITFKLNSMGWYRQAPGKERELVAAITSTGGSTYYADSVKGRFTISRDNAKNTVYLQMNSLKPEDTAVYYCATDILIDGFYSDYWGQGTQVTVSS	high polyreactivity
QVQLEESGGGLVQAGGSLRLSCAASGSILPKYDMGWSRQAPGKERELVAAITRTGGRTYYADSVKGRFTISRDYAKNTVYLQMNSLKPEDTAVYFCAVRGFFWSTRSYRIRSEYDYWGQGTQVTVSS	low polyreactivity
HVQLVESGGGLVQAGGSLRLSCAASGSTFYNNAMGWTRQAPGKERELVAAITSSVGSTQYADSVKGRFTISRDKAKNTVYLPMNSLKPADTAVYYCAATFGYGRYGYWGQGTQVTVSS	low polyreactivity
QVQLVESGGGLVQAGGSLLLSCAASGLIFYPYAMGWYRQAPGKEREFVAAITWSGGSTRYADSVKGRFTISRDNAKNTVYLQMNSLKPEDTAVYYCAARYIWWYDYTYTGLDYWGQGTQVTVSS	high polyreactivity
QVQLVESGGGLVQAGGSLRLSCAASGIIFDGNAMGWYRQAPGKERELVASITSDSSTNYADSEKGRFTISRDNAKNTVYLQMNSLKPADTAVYYCAADHWIAPRRDYWGQGTQVTVSS	low polyreactivity

Sequence	polyreactivity (PSR sort gate)
QVHLVDSGGCLVQAGGSLRLSCAASGRTFSAYAMGWYRQAPGKEREVVAAISRSGGSTYYADSVKGRFTISRDNAKNTVYLPMNSLTPEDTAVYDCAVRWPSARIPVKLEDWGQGTQVTVSS	high polyreactivity
QVQLVESGGGLVQAGGSLRLSCAASGSTFSFNDMGWYRQAPGKERELVADISWSGDTTYADSVKGRFTISRDNAKNTVYLQMNSLKPEDTAVYYCNAEGFSIAFYANWVVQWEFDFWGQGTQVSVSS	high polyreactivity
QVQLVESGGGLVQAGGSLRLSCAASGRTFWYYAMGWYRQAPGKERELVAVINSSGGRTYYADSVKGRFTISRDNAKNTVYLQMNSLKPEDTAVYYCAAYRGVPSRYDYWGQGTQVTVSS	high polyreactivity
QDQLEESGGGLVQAGASLRLSCAAYGSIFSGYAMGRYRQATGKERELVAAITWRAASTYYADSVKGRFTISRDNAKTTVYLQMNSLKPEDTEVYYCAKEGWPKPAFYYWGLGTQVTVSS	low polyreactivity
QVQLVESGGGLVQAGGSLRLRCAASGYTFPSNAKGWYRQAPGKERELVAPISSGGRTNYADSVKGRFTISRDNAKNTVYLLMKSLKPEDTAVYYSNADGGPGYPRAYDYWGQVTQVTVSS	low polyreactivity
QVQLVESGGGLVQAGGSLRLSCAASGLTFVVYAMGWYRQAPGKERELVAAISSTGNTYYADSEKGRFTISRDNAKNTVYLQMNSLKPEDTAVYYCAAERSFYWYHFDYWGQGTQVTVSS	high polyreactivity
QVQLVESGGGLVQAGGSLRLSCAASGLTFARTAKGWYRQAPGKERALVAAISSRGGSTYYADSVKGRFTISRDIANNTVYLQMNSLKPEDTAVYYCATSQVLRRDRYDYWGQGTQVTVSS	high polyreactivity
QVQLVESGGGLVQAGGSLRLSCAASGFTFLPYVMGWYRQAPGKERELVAGITRTGSTNYADSVKGRFTISRDNAKNTVYLQMNSLKPEDTAVYYCAARLKYWGDYYYWGQGTQVTVSS	low polyreactivity
QVQLVESGGGLVQAGGSLRLSCAASGSTFPYYTMGWYRQAPGKERELVAAIRYSGSSTYYADSVKGRFTISLDNAKNSVYLQMNSLKPEDTAVYSCAKTLWRRRGDRRYRVIEMDHWGQGTQVTVSS	low polyreactivity
QVQLVESGGGLVQAGGRLRLSCAASGSTFGDYAMGWYRQAPGKEREFVAAITWSGGSTNYADSVKGRFTISRDYAKNTVYLPMNSLKPEDTAVYYCAKPWYSSGFEYWGQGTQLTVSS	high polyreactivity
QDQLVESGGGLVQAGGSLRLSCAASGRTFGTYAMGWYRQAPGKERELVAAISSSGGRTYYADSVKGRFTISRDNAKNTVYVLMHSLKPEVTAVYYFAKSRYATQTDYNYWGQGTQVTVSS	high polyreactivity
QVQLVESGGGLVQAGGSLRLSCAASGSTFASYAMGWDRQAPGKERELVAAITDSGGSTYYADSVKGRFTISRDNAKNTVYLQMNSLKPEDTAVYYCAAYGPYFSYHDYDYWGQGTQVTVSS	low polyreactivity
QVQLVESGGGLVQAGGSLRLSCAASGSTFSSNAMGWYRQAPGKERELVAAISSGGSTNYADSVKGRFTISRDNAKNTVYLQMNSLKPEDTAVYYCAADRSPEYYWGQGTQVTVSS	low polyreactivity
QVQLVESGGGLVQAGGSLRLSCAASGRIFSGNTMGWYRQAPGKERELVAAISKSGGRTYYADSVKGRFTISRDNAKNTVYLQMNSLKPEDTAVYYCNADYRSHYLYDYWGQGTQVTVSS	low polyreactivity
QVQLVESGGGLVQAGGSLRLSCAASGFTFVRYAMGWYRQAPGKERELVAAISSSGSSTYYGDSVKGRFTISRDHEKNTVYLQMNSLKPEDTAVYYFNARAGRGEDYWGQGTQVTVSS	low polyreactivity
QVQVVESGGGLVQAGGSLRLSCAASGSIFSGYAMGWYREAPGKERELVAAITSSGGSTYYADSVKGRFTISRDNAKKTVYLQMHSLKPEDTAVYYCAAYRYRYYSYDSWGQGTQVTVSS	high polyreactivity
QVQLVESGGGLVQAGGSLRLSCAASGSIFAFYAKGWYRQAPGKERELVAYITSGGSTYYADSVKGRFTISRDNAKNNVYLQMNSLKPEDTAVYYFNSVYYSALVSGGETTIKRRYYWGQGTQVTVSS	high polyreactivity
QVQLVESGGGLVQARGSLRLSCAASGITFNRYVMGWYRQAPGKERELVAAISRTGGSTYYADSVKGRFTISRDNAKNTDFLQMNSLKPEDTAVYYCAAATSPGIYDYWGQGTQVTVSS	high polyreactivity
QVQLLESGGGLVQAGGSLRLTCAASGRTFYRNAMGWYRPAPGKERELVAAISSGGSTTYADSVKGRFTISRDNAKNTVYLQMNSLKPEDTAVYYCAARSHAGSVSPRLKEYDYWGQGTQVTVSS	low polyreactivity
QVQLVESGGGLVQAGGSLRLSCAASGRTFRVNSMGWYRPAPGKDRELVATIRWTGGSTYYADSVKGRFTISRDNAKNTVYLQMNSLKPEDTAVYYCAARIAVYHRGIGGYWGQGTQVTVSS	high polyreactivity
QVQLVESGGGLFQAGGSLRLSCAASGIIFVRNAMGWSRQAPGKERELVAAITPSGGSTYYADSVKGRFTISRDNAKNTVYLQMNSLKPEDTAVYYCAAPYRYRSLYDNWGQGSQVTVSS	high polyreactivity
